Assays:
Assay in all cases: SPR
[1] = biological target: T1, human FcγRIIa type H extracellular domain with C-terminal His tag (human, UniProt P12318 34-217)
T1 construct: extracellular domain; also called FcgRIIaH; FcγRIIa H
T1 sequence (looked up): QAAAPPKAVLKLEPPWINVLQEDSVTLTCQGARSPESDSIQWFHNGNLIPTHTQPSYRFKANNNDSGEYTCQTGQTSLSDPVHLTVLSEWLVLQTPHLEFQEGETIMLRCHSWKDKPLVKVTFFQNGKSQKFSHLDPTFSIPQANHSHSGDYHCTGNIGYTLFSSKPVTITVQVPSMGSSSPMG

[2] = biological target: T2, human FcγRIa extracellular domain with C-terminal His tag (human, UniProt P12314 16-292)
T2 construct: Whole entry named; also called FcgRIa; FcgIa

[3] = biological target: T3, human FcγRIIIa type V extracellular domain with C-terminal His tag (human, UniProt P08637 17-208)
T3 construct: extracellular domain; also called FcgRIIIaV; FcγRIIIaV

Measured: binding result

T3 sequence (P08637 17-208 F176V): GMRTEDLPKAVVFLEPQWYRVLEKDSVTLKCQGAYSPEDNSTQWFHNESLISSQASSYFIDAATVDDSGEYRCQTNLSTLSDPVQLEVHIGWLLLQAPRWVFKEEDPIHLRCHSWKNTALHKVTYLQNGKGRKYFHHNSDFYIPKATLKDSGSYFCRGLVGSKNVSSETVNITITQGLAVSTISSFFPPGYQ
T2 sequence (P12314 16-292): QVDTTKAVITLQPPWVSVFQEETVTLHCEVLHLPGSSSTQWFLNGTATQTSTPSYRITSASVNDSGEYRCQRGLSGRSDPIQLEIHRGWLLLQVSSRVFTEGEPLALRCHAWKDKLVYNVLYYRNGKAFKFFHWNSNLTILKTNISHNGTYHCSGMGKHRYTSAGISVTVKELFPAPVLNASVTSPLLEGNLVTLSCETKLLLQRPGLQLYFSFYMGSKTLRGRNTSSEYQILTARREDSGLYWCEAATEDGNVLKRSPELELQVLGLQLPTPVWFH

B1: IL6R-BP253/IL6R-L (antibody, human IgG1, kappa)
heavy: QVQLQESGPGLVKPSETLSLTCAVSGHSISHDHAWSWVRQPPGEGLEWIGFISYSGITNYNPSLQGRVTISRDNSKNTLYLQMNSLRAEDTAVYYCARSLARTTAMDYWGEGTLVTVSSASTKGPSVFPLAPSSKSTSGGTAALGCLVKDYFPEPVTVSWNSGALTSGVHTFPAVLQSSGLYSLSSVVTVPSSSLGTQTYICNVNHKPSNTKVDKKVEPKSCDKTHTCPPCPAPELLGGPSVFLFPPKPKDTLMISRTPEVTCVVVDVEHEDPEVKFNWYVDGVEVHNAKTKPREEQYNSTYRVVSVLTVLHQDWLNGKEYKCKVSNKAFPAPIEKTISKAKGQPREPQVYTLPPSRDELTKNQVSLTCLVKGFYPSDIAVEWESNGQPENNYKTTPPVLDSDGSFFLYSKLTVDKSRWQQGNVFSCSVMHEALHNHYTQESLSLSP
light: not shown
notes: IL6R-B3 with S267E and L328F; also called IL6R-BP253/ILR-L
binds: all assays above
